# Publication PMC6021170
# Where a chain is given by its changes, count along the chain named. Names and notes keep the numbering of the source.
# B1: calnexin (natural protein)
# chain: HDGHDDDVIDIEDDLDDVIEEVEDSKPDTTAPPSSPKVTYKAPVPTGEVYFADSFDRGTLSGWILSKAKKDDTDDEIAKYDGKWEVEEMKESKLPGDKGLVLMSRAKHHAISAKLNKPFLFDTKPLIVQYEVNFQNGIECGGAYVKLLSKTPELNLDQFHDKTPYTIMFGPDKCGEDYKLHFIFRHKNPKTGIYEEKHAKRPDADLKTYFTDKKTHLYTLILNPDNSFEILVDQSVVNSGNLLNDMTPPVNPSREIEDPEDRKPEDWDERPKIPDPEAVKPDDWDEDAPAKIPDEEATKPEGWLDDEPEYVPDPDAEKPEDWDEDMDGEWEAPQIANPRCESAPGCGVWQRPVIDNPNYKGKWKPPMIDNPSYQGIWKPRKIPNPDFFEDLEPFRMTPFSAIGLELWSMTSDIFFDNFIICADRRIVDDWANDGWGLKKAADGAAEPGVVGQMIEAAEERPWLWVVYILTVALPVFLVILFCCSGKKQTSGMEYKKTDAPQPDVKEEEEEKEEEKDKGDEEEEGEEKLEEKQKSDAEEDGGTVSQEEEDRKPKAEEDEILNRSPRNRKPRRE
# B2: corin: N1022Q (protein)
# parent chain: MKQSPALAPEERCRRAGSPKPVLRADDNNMGNGCSQKLATANLLRFLLLVLIPCICALVLLLVILLSYVGTLQKVYFKSNGSEPLVTDGEIQGSDVILTNTIYNQSTVVSTAHPDQHVPAWTTDASLPGDQSHRNTSACMNITHSQCQMLPYHATLTPLLSVVRNMEMEKFLKFFTYLHRLSCYQHIMLFGCTLAFPECIIDGDDSHGLLPCRSFCEAAKEGCESVLGMVNYSWPDFLRCSQFRNQTESSNVSRICFSPQQENGKQLLCGRGENFLCASGICIPGKLQCNGYNDCDDWSDEAHCNCSENLFHCHTGKCLNYSLVCDGYDDCGDLSDEQNCDCNPTTEHRCGDGRCIAMEWVCDGDHDCVDKSDEVNCSCHSQGLVECRNGQCIPSTFQCDGDEDCKDGSDEENCSVIQTSCQEGDQRCLYNPCLDSCGGSSLCDPNNSLNNCSQCEPITLELCMNLPYNSTSYPNYFGHRTQKEASISWESSLFPALVQTNCYKYLMFFSCTILVPKCDVNTGEHIPPCRALCEHSKERCESVLGIVGLQWPEDTDCSQFPEENSDNQTCLMPDEYVEECSPSHFKCRSGQCVLASRRCDGQADCDDDSDEENCGCKERDLWECPSNKQCLKHTVICDGFPDCPDYMDEKNCSFCQDDELECANHACVSRDLWCDGEADCSDSSDEWDCVTLSINVNSSSFLMVHRAATEHHVCADGWQEILSQLACKQMGLGEPSVTKLIQEQEKEPRWLTLHSNWESLNGTTLHELLVNGQSCESRSKISLLCTKQDCGRRPAARMNKRILGGRTSRPGRWPWQCSLQSEPSGHICGCVLIAKKWVLTVAHCFEGRENAAVWKVVLGINNLDHPSVFMQTRFVKTIILHPRYSRAVVDYDISIVELSEDISETGYVRPVCLPNPEQWLEPDTYCYITGWGHMGNKMPFKLQEGEVRIISLEHCQSYFDMKTITTRMICAGYESGTVDSCMGDSGGPLVCEKPGGRWTLFGLTSWGSVCFSKVLGPGVYSNVSYFVEWIKRQIYIQTFLLN
# B3: corin: sN1022Q (protein)
# parent chain: B2 parent chain
# B4: corin: sR801A/N1022Q (protein)
# parent chain: B2 parent chain
# B5: corin: R801A/N1022Q (protein)
# parent chain: B2 parent chain with R801A
# Legend:
# [1] = ELISA of conditioned medium, endogenous prothrombin, HepG2; details: glycan changed form; control: untreated HepG2 cells
# [2] = ELISA of cell lysates, endogenous prothrombin, HepG2; details: glycan changed form; control: untreated HepG2 cells
# [3] = western blot of cell lysates, HEK293; details: glycan lost; control: PT-WT
# [4] = western blot of conditioned medium, HEK293; details: glycan lost; control: PT-WT
# [5] = target: prothrombin mutant PT-N416Q (human) (UniProt P98073); assay: co-IP; lysates of transfected HEK293 cells immunoprecipitated with anti-V5 antibody and protein A-Sepharose; co-precipitated endogenous chaperones detected by western blotting and densitometry; cells without or with DNJ (2 mM, 37°C, 24-48 hr)
# [6] = target: enteropeptidase mutant EK-4Q (human) (UniProt P00734); assay: as above
# [7] = cycloheximide chase, lysate western blot; details: glycan lost; control: WT corin
# [8] = confocal co-staining after 4 hr CHX; details: glycan lost; control: WT corin
# [9] = western blot, cleaved Corin-p band in lysate; details: glycan lost; control: WT corin
# [10] = confocal co-staining with or without CHX; details: glycan lost; control: WT corin
# [11] = Endo H sensitive/resistant band ratio after 4 hr CHX; details: glycan lost; control: WT corin
# [12] = western blot of cell lysates, zymogen bands; details: glycan lost
# [13] = cell surface biotinylation, western blot densitometry; details: glycan lost
# [14] = western blot of cell lysates; details: glycan lost
# [15] = western blot of conditioned medium; details: glycan lost
# [16] = control: sR801A (soluble corin)
# Chain of UniProt P98073 (P98073 whole entry, stated change not applied): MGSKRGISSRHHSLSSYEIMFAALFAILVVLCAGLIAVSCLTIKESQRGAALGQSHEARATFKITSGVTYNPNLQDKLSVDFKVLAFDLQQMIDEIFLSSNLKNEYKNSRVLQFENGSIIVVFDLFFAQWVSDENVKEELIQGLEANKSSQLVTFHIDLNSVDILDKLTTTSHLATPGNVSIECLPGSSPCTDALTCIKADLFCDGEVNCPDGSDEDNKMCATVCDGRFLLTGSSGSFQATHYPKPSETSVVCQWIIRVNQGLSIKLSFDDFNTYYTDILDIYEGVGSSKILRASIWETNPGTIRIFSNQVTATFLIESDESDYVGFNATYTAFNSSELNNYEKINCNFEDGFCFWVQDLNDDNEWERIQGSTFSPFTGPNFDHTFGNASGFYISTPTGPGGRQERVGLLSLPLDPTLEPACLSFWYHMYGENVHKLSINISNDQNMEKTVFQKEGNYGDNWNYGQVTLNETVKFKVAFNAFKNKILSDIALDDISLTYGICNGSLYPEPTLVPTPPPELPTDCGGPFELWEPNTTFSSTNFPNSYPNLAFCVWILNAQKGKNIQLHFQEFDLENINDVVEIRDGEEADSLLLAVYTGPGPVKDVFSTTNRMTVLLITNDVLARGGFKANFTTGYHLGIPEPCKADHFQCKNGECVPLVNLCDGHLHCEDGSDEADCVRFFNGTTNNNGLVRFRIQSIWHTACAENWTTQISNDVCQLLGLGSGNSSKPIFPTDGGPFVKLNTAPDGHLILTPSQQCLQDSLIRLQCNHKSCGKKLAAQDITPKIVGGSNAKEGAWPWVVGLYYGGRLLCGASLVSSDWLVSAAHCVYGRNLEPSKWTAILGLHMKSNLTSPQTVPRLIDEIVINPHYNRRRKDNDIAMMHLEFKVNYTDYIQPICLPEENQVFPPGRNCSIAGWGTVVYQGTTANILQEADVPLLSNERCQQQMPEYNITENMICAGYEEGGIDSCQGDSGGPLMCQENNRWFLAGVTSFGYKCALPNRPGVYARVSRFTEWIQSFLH
molecule,measurement,setting,value
prothrombin (PT): DNJ,"expression_or_secretion, percent_of_wt",[1],decreases
same,expression_or_secretion,[2],no change
prothrombin (PT): PT-N416Q,expression_or_secretion,[3],no change
same,"expression_or_secretion, percent_of_wt",[4],decreases
B1,"co-precipitated level, percent of that with PT-WT",[5],171%
same,"co-precipitated level, percent of that with EK-WT",[6],165%
B2,"degradation_or_half_life, half_life",[7],"increases, 6.1 ± 0.3 vs 3.8 ± 0.4"
same,"localisation_or_trafficking, other: Pearson's correlation coefficient",[8],"increases, 0.35 ± 0.05 vs 0.15 ± 0.06"
same,other: proteolytic processing,[9],decreases
same,localisation_or_trafficking,[10],no change
same,localisation_or_trafficking,[11],changes
same,expression_or_secretion,[12]; control: WT corin,no change
same,"expression_or_secretion, percent_of_wt",[13]; control: WT corin,decreases
B3,expression_or_secretion,[14]; control: sWT (soluble corin),no change
same,"expression_or_secretion, percent_of_wt",[15]; control: sWT (soluble corin),decreases
B4,expression_or_secretion,[14]; [16],no change
same,"expression_or_secretion, percent_of_wt",[15]; [16],decreases
B5,expression_or_secretion,[12]; control: R801A corin,no change
same,"expression_or_secretion, percent_of_wt",[13]; control: R801A corin,decreases
